In patent US12559745B2, “Methods and compositions for linking RNA stem loops” (THE REGENTS OF THE UNIVERSITY OF CALIFORNIA, priority 2020, dated 2026):
Values joined by “and” are separate entries in the source; they are usually repeats but may differ in a detail not shown here. Equal entries are not always repeated. “Also recorded” adds a separate entry of the source.

Key:
[1] = In vitro photo-cleavage (uncaging) assay, LED irradiation followed by denaturing PAGE; assay type: physicochemical
[2] = tested on: 60 bp DNA substrate containing the sgRNA-9 target sequence; experiment: In vitro binding assay, Cas9-sgRNA-DNA ternary complex formation (native PAGE); conditions: pre-formed RNP plus 20 nM DNA substrate, 37° C., 90 seconds; 5% native TBE-PAGE
DYRK1A genome locus = experiment: CRISPR-Cas9 gene editing in Cas9-expressing HEK-293 cells, INDEL rate by Sanger sequencing / ICE tool; assay type: cell-based; conditions: for gene editing activity (INDEL rate) of unmodified sgRNA: unmodified (linear) sgRNA with Tag sequence(s), transfected into Cas9-expressing HEK-293 cells, compared with wild-type sgRNA
Source text: We asked whether RNA-CLAMP could be used to control CRISPR-Cas9 editing via cyclization of the sgRNA. The sgRNA is highly structured when in complex with dCas9 and target DNA, forming three stem loops and one tetraloop, with some of the stem loops being tolerant to mutations.^[18] A sgRNA contains four stem-loops and two free ends (FIGS. 3A and 3B). We screened the 17-nt Tag recognition sequence (GCAGACUGUAAAUCUGC) (SEQ ID NO:1) at all 6 potential labeling sites within the sgRNA: insertion at the 5′-end (sgRNA-1) or 3′-end (sgRNA-6) and substituting the 17-nt Tag stem loop for either the tetra loop (sgRNA-2), stem loop 1 (sgRNA-3), stem loop 2 (sgRNA-4) or stem loop 3 (sgRNA-5) (FIG. 12). All the sgRNAs target the DYRK1A genome locus.^[32] To screen for activity, we transiently transfected the sgRNAs into HEK-293 cells stably expressing Cas9 protein. Three days after transfection, genomic DNA was harvested and the sgRNA targeted region was amplified by PCR. Sanger sequencing results were analyzed using the ICE tool to determine the INDEL rate, which is representative of the gene editing efficiency of the sgRNA.^[33]
To obtain optimal gene editing efficiency, we examined different Cas9 delivery approaches, including transfection or electroporation of Cas9 vector or mRNA, electroporation of Cas9-sgRNA RNP complex and sequential transfection of Cas9-mRNA and sgRNA. The gene editing efficiency varies from 20% INDEL to 80% INDEL with different delivery strategies. We constructed an engineered mammalian single-colony HEK-293 cell line that stably expresses Cas9 enzyme using the lentiviral approach. To quantify the activity of sgRNA, we delivered sgRNA1 to sgRNA6 into the HEK-293-Cas9 cells using lipofectamine RNAiMAX. One day after transfection, culturing medium was exchanged with fresh full-growth medium (DMEM with 10% FBS). Three days after transfection, genomic DNA was extracted from the cells, following by PCR amplification of the sgRNA targeted region. The PCR amplified DNA fragments were further analyzed by either the T7E1 nuclease digestion assay or by Sanger sequencing to quantify gene knockouts efficiency of the targeted region.^25,26 […]
Gene editing experiments were performed following previously reported protocols.^[2] For gene editing experiments using HEK-293-Cas9 cell line, 250 ng sgRNA and 0.5 μL Lipofectamine RNAiMAX were used to form the Lipo-RNA complex. The formed complex was added with 150 μL DMEM (10% FBS) containing 40K HEK-293-Cas9 cells. The transfection was performed in a 96-well plate format. 24 hours after transfection, cell medium was changed to complete DMEM medium. At day 4, genomic DNA was extracted using 80 μL QuickExtract™ DNA Extraction Solution (Lucigen, catalog number: QE09050). Following the manufacturer's protocol, the extraction solution was heated at 65° C. for 15 minutes and then at 95° C. for another 15 minutes. The resulting solution was diluted using water at a 1:10 ratio. The diluted product was directly used as a template for PCR amplification of the genomic region. For PCR amplification of the genomic region, Q5 HOTSTART HIFI DNA polymerase 2× master mix was used following the manufacturer's protocol without further optimization. The primers used for amplifying the DYRK1A and GRIN2B genome locus are listed below.
Crude PCR products were column purified using a Zymo DNA purification kit. The purified PCR amplicon was analyzed by Sanger sequencing to estimate INDEL % using the ICE tool.^[3] The wt-sgRNA gene editing INDEL % was usually around 70-80% following this protocol.

Cas9 protein = biological target: T1, Cas9 protein (Streptococcus pyogenes serotype M1, UniProt Q99ZW2); experiment: In vitro binding assay, Cas9-sgRNA RNP formation (gel shift, native PAGE); conditions: 200 nM Cas9, 200 nM sgRNA
T1 construct: purchased NEB M0646T

HEK-293 cells = experiment: Gene editing in HEK-293 wild-type cell line with Cas9 mRNA transfected one day before sgRNA; assay type: cell-based; conditions: HEK-293 wild-type cells, Cas9 mRNA transfection; usual value
Description: For gene editing experiments performed using a HEK-293 wild-type cell line, mRNA encoding the Cas9 protein (Trilink, catalog number L-7206-20) was transfected into HEK-293 cells one day prior to sgRNA transfection. For mRNA transfection, Lipo-RNA complex was formed by using 500 ng mRNA, 0.9 μL Lipofectamine RNAiMAX in 50 μL total volume, combined with 150 μL DMEM complete medium containing 40K HEK-293 cells. At day 2, sgRNA transfection was performed following the protocol described in the previous section. The wt-sgRNA gene editing INDEL % was usually around 40-50% following this protocol.

## CCN(CC)c1ccc2c(C(CCCn3cc(COCCC(=O)NCCCCCCNCc4c[nH]c5nc(N)[nH]c(=O)c45)nn3)OC(=O)NCCCCCCNCc3c[nH]c4nc(N)[nH]c(=O)c34)cc(=O)oc2c1 (stereo not drawn) [preQ1-DEACM-preQ1]
[1]
  wavelength of light that photo-cleaves the linker: 405-456 nm

## COc1cc(C(C)OC(=O)NCCCCCCNCc2c[nH]c3nc(N)[nH]c(=O)c23)c([N+](=O)[O-])cc1OCCCC(=O)NCCOCCOCCOCCOCc1cn(CC(=O)NCCCCCCNCc2c[nH]c3nc(N)[nH]c(=O)c23)nn1 (stereo not drawn) [preQ1-NB-preQ1]
[1]
  wavelength of light that photo-cleaves the linker: 356-390 nm and 390 nm

## sgRNA-12: sgRNA targeting the sequence between the mCherry and GFP genes of the surrogate reporter, SEQ ID NO:40 (guide GTTCAGGGCTTGACCAACAC; listed as DNA, chemistry not fully specified)
[2]
  formation of Cas9-sgRNA-DNA ternary complex: no Cas9-sgRNA-DNA complex was observed

B1: sgRNA-3: sgRNA with 17-nt Tag stem loop substituted for stem loop 1, SEQ ID NO:11 (nucleic acid)
guide: NNNNNNNNNNNNNNNNNNNNGTTTTAGAGCTAGAAATAGCAAGTTAAAATAAGGCGCAGACTGTAAATCTGCGTCCGTTATCAACTTGAAAAAGTGGCACCGAGTCGGTGC
modifications: listed as DNA, chemistry not given here
DYRK1A genome locus
  gene editing activity (INDEL rate) of unmodified sgRNA: significantly reduced activity

B2: sgRNA-4: sgRNA with 17-nt Tag stem loop substituted for stem loop 2, SEQ ID NO:12 (nucleic acid)
guide: NNNNNNNNNNNNNNNNNNNNGTTTTAGAGCTAGAAATAGCAAGTTAAAATAAGGCTAGTCCGTTATCAACTTGCAGACTGTAAATCTGCAAGTGGCACCGAGTCGGTGC
modifications: listed as DNA, chemistry not given here
DYRK1A genome locus
  gene editing activity (INDEL rate) of unmodified sgRNA: wild-type level gene editing activity; also recorded: retained wild-type level activity

B3: sgRNA-2: sgRNA with 17-nt Tag stem loop substituted for the tetra loop, SEQ ID NO:10 (nucleic acid)
guide: NNNNNNNNNNNNNNNNNNNNGTTTTAGAGCTAGCAGACTGTAAATCTGCTAGCAAGTTAAAATAAGGCTAGTCCGTTATCAACTTGAAAAAGTGGCACCGAGTCGGTGC
modifications: listed as DNA, chemistry not given here
DYRK1A genome locus
  gene editing activity (INDEL rate) of unmodified sgRNA: wild-type level gene editing activity; also recorded: retained wild-type level activity

B4: sgRNA-9: sgRNA-7 with Tag stems truncated by 4 base pairs, SEQ ID NO:17; targets DYRK1A (nucleic acid)
guide: NNNNNNNNNNNNNNNNNNNNGTTTTAGAGCTAACTGTAAATTAGCAAGTTAAAATAAGGCTAGTCCGTTATCAACTTACTGTAAATAAGTGGCACCGAGTCGGTGC
modifications: chemistry not given here
notes: targets DYRK1A
Cas9 protein
  formation of Cas9-sgRNA RNP: observed; also recorded: detected in lane 4
[2]
  formation of Cas9-sgRNA-DNA ternary complex: observed the formation of the Cas9-sgRNA-DNA ternary complex; also recorded: detected in lane 5

B5: sgRNA-7: sgRNA with two Tag sequences inserted at both the tetraloop and stem loop 2, SEQ ID NO:15 (nucleic acid)
guide: NNNNNNNNNNNNNNNNNNNNGTTTTAGAGCTAGCAGACTGTAAATCTGCTAGCAAGTTAAAATAAGGCTAGTCCGTTATCAACTTGCAGACTGTAAATCTGCAAGTGGCACCGAGTCGGTGC
modifications: listed as DNA, chemistry not given here
[1]; 456 nm LED, 3 minutes
  integrity of unlabeled sgRNA under 456 nm irradiation: harmless to the integrity
DYRK1A genome locus; HEK-293 cells, clamped with preQ1-PEG10-preQ1 and gel purified, versus unmodified (linear) form
  INDELs: 80.7%
DYRK1A genome locus
  gene editing activity (INDEL rate) of unmodified sgRNA: wild-type level gene editing activity; also recorded: did not compromise gene editing activity

B6: wt-sgRNA: wild-type single-guide RNA, SEQ ID NO:8 (nucleic acid)
guide: CTAATACGACTCACTATANNNNNNNNNNNNNNNNNNNNGTTTTAGAGCTAGAAATAGCAAGTTAAAATAAGGCTAGTCCGTTATCAACTTGAAAAAGTGGCACCGAGTCGGTGCTTTTTT
modifications: target site or template, no part of the molecule; listed as DNA, chemistry not given here
HEK-293 cells
  gene editing INDEL %: 40-50%
DYRK1A genome locus; HEK-293-Cas9 cell line protocol, usual value
  gene editing INDEL %: 70-80%

B7: sgRNA-5: sgRNA with 17-nt Tag stem loop substituted for stem loop 3, SEQ ID NO:13 (nucleic acid)
guide: NNNNNNNNNNNNNNNNNNNNGTTTTAGAGCTAGAAATAGCAAGTTAAAATAAGGCTAGTCCGTTATCAACTTGAAAAAGTGGCACCGAGCAGACTGTAAATCTGCTCGGTGC
modifications: listed as DNA, chemistry not given here
DYRK1A genome locus
  gene editing activity (INDEL rate) of unmodified sgRNA: significantly reduced activity

B8: sgRNA-1: sgRNA with 17-nt Tag inserted at the 5′-end, SEQ ID NO:9 (nucleic acid)
guide: GCAGACTGTAAATCTGCTTTTNNNNNNNNNNNNNNNNNNNNGTTTTAGAGCTAGAAATAGCAAGTTAAAATAAGGCTAGTCCGTTATCAACTTGAAAAAGTGGCACCGAGTCGGTGC
modifications: listed as DNA, chemistry not given here
DYRK1A genome locus
  gene editing activity (INDEL rate) of unmodified sgRNA: significantly reduced activity
